From the supplement of paper PMC7877785
± gives the uncertainty stated by the source.

Assay: self-splicing fitness, log relative to wild type (ln ratio); higher = more splicing; Tetrahymena group I intron in knt gene, E. coli kanamycin selection, DiMSum; sequences stand for … in CUCUCU…GGAGGGAAAAGUUAUCAGGCAUGCACCUGGUAGCUAGUCUUUAAACCAAUAGAUUGCAUCGGUUUAAAAGGCAAGACCGUCAAAUUGCGGGAAAGGGGUCAACAGCCGUUCAGUACCAAGUCUCAGGGGAAACUUUGAGAUGGCCUUGCAAAGGGUAUGGUAAUAAGCUGACGGACAUGGUCCUAACCACGCAGCCAAGUCCUAAGUCAACAGAUCUUCUGUUGAUAUGGAUGCAGUUCACAGACUAAAUGUCGGUCGGGGAAGAUGUAUUCUUCUCAUAAGAUAUAGUCGGACCUCUCCUUAAUGGGAGCUAGCGGAUGAAGUGAUGCAACACUGGAGCCGCUGGGAACUAAUUUGUAUGCGAAAGUAUAUUGAUUAGUUUUGGAGUACUCGUGGUCG
Procedure, shortened: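 Library with all eight P1ex-region intron nucleotides randomised, intron inside the knt kanamycin-resistance gene on pET-22b(+), in E. coli BL21(DE3). Cells grew overnight at 37°C or 30°C on LB agar with or without 25 μg/mL kanamycin (plus 100 μg/mL carbenicillin, 50 μM IPTG, 0.2% rhamnose), in six replicate transformations. Pooled colonies were amplicon-sequenced on Illumina HiSeq 2500. DiMSum fitness is the error-weighted combination of wild-type-normalised replicate fold changes, kanamycin versus none.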

Row | Sequence | self-splicing fitness (ln) (30 °C) | self-splicing fitness (ln) (37 °C)
1 | GGCAAGCAAUAUUACGUGGU | -2.43 ± 0.085 | -1.57 ± 0.075
2 | GGCAAGCAAUAUUACGUUGG | -2.5 ± 0.075 | -2.93 ± 0.12
3 | GGCCAGCAAUAUUACGAACG | -2.65 ± 0.41 | -0.764 ± 0.3
4 | GGCCAGCAAUAUUACGACAA | -2.78 ± 0.24 | -1.71 ± 0.19
5 | GGCCAGCAAUAUUACGACUC | -1.21 ± 0.11 | 0.0572 ± 0.13
6 | GGCCAGCAAUAUUACGACUU | -0.142 ± 0.084 | 0.435 ± 0.11
7 | GGCCAGCAAUAUUACGAGGC | -2.66 ± 0.23 | -2.94 ± 0.4
8 | GGCCAGCAAUAUUACGAUUA | -3.4 ± 0.21 | -2.05 ± 0.15
9 | GGCCAGCAAUAUUACGAUUU | -1.9 ± 0.12 | -0.659 ± 0.13
10 | GGCCAGCAAUAUUACGCCUA | -1.05 ± 0.15 | -1.05 ± 0.15
11 | GGCCAGCAAUAUUACGCUGC |  | -1.67 ± 0.22
12 | GGCCAGCAAUAUUACGCUGG | -3.98 ± 0.27 | -2.27 ± 0.24
13 | GGCCAGCAAUAUUACGGAAA | -1.27 ± 0.11 | -0.606 ± 0.13
14 | GGCCAGCAAUAUUACGGCCG | -3.47 ± 0.22 | -3 ± 0.23
15 | GGCCAGCAAUAUUACGGCUA | -0.439 ± 0.097 | -0.0906 ± 0.1
16 | GGCCAGCAAUAUUACGGCUU | -3.45 ± 0.21 | -2.68 ± 0.22
17 | GGCCAGCAAUAUUACGGGGC | -5.35 ± 0.32 | -4.33 ± 0.23
18 | GGCCAGCAAUAUUACGGGGU | -3.68 ± 0.24 | -3.21 ± 0.26
19 | GGCCAGCAAUAUUACGGGUC | -3.65 ± 0.26 | -2.41 ± 0.23
20 | GGCCAGCAAUAUUACGGUAC | -3.7 ± 0.19 | -2.3 ± 0.15
21 | GGCCAGCAAUAUUACGGUGG | -2.52 ± 0.14 | -1.85 ± 0.14

Row | Sequence | self-splicing fitness (ln) (30 °C) | self-splicing fitness (ln) (37 °C)
22 | GGCCAGCAAUAUUACGUCAA | -1.34 ± 0.31 | -2.61 ± 0.35
23 | GGCCAGCAAUAUUACGUCUC | -1.1 ± 0.089 | -0.447 ± 0.12
24 | GGCCAGCAAUAUUACGUCUG | -3.07 ± 0.24 | -2.93 ± 0.32
25 | GGCCAGCAAUAUUACGUUGU | -0.721 ± 0.072 | -0.537 ± 0.1
26 | GGCGAGCAAUAUUACGACGU | -1.36 ± 0.16 | -0.783 ± 0.21
27 | GGCGAGCAAUAUUACGAGAG | -3.79 ± 0.39 | -2.54 ± 0.33
28 | GGCGAGCAAUAUUACGAGAU | -3.61 ± 0.32 | -2.37 ± 0.49
29 | GGCGAGCAAUAUUACGAGGA | -3.43 ± 0.43 | -2.43 ± 0.25
30 | GGCGAGCAAUAUUACGAUAA | -1.64 ± 0.13 | -0.294 ± 0.15
31 | GGCGAGCAAUAUUACGAUAU | -2.12 ± 0.12 | -0.859 ± 0.12
32 | GGCGAGCAAUAUUACGAUGU | -3.69 ± 0.32 | -1.53 ± 0.2
33 | GGCGAGCAAUAUUACGAUUU | -1.09 ± 0.092 | -0.569 ± 0.12
34 | GGCGAGCAAUAUUACGCAAC | -0.841 ± 0.36 | -0.673 ± 0.27
35 | GGCGAGCAAUAUUACGCAUA | -1.15 ± 0.17 | -0.988 ± 0.16
36 | GGCGAGCAAUAUUACGCCAG | -1 ± 0.18 | -2.71 ± 0.44
37 | GGCGAGCAAUAUUACGCCGA | -2.65 ± 0.18 | -1.45 ± 0.091
38 | GGCGAGCAAUAUUACGCGAC | -2.61 ± 0.42 | 
39 | GGCGAGCAAUAUUACGCGAU | -3.7 ± 0.26 | -1.62 ± 0.19
40 | GGCGAGCAAUAUUACGCGUU | -2.26 ± 0.24 | -1.94 ± 0.3
41 | GGCGAGCAAUAUUACGCUCU | -2.72 ± 0.23 | -2.06 ± 0.2
42 | GGCGAGCAAUAUUACGGAAU | -2.91 ± 0.19 | -1.87 ± 0.21
